From PMC4417206

These sequences were tested against T1, N-ht-CRP (cAMP receptor protein) (Shewanella oneidensis MR-1) (UniProt Q8EJ49) (assay: EMSA). Settings: 10 mM Tris-HCl pH 7.6, 0.5 mM EDTA, 100 mM KCl, 50 ug/mL BSA, 50 ug/mL poly(dI-dC), 50 uM cAMP, 10% glycerol, 2 nM probe, 0-200 ng CRP in 20 uL, on ice 30 min ….
T1 sequence: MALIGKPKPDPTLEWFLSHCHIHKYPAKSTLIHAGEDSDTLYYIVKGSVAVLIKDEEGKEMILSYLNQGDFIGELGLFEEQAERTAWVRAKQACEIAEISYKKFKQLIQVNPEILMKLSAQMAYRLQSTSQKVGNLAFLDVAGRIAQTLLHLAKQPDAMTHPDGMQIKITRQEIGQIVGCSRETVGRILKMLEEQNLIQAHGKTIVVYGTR
In the case of “CCCGCTTAAAGTGACTGATAAATACCAATGACTTAGTTAGCCTTACAGGTGGGATCTAATTCC (double strand) [PBomcA2]”, the binding is reported as “no binding”. With “CCTTGGGGAATTCTATTTCCAGCATCCACTTAAGTCGCTTCTAGTGATCAAATACACAGACATAGAATCTGTTGGCGCTAGAGCATAGCGGTTAAGCAATGCCAAACCTATGCAGGGAAAA (double strand) [PBmtrC2]” the binding was “no binding”. With “TCCACCTCACTATCTGTTGTTTTTTTGCTCTCAATTTGTTTTTCCCTTGTGGTTTAACTACCTCTTTAGAAATAGAAAGATCCAAGTCACACATTAGCAAAGGCTTAGAAGATTTTAACGGCATGTTGGGTTAGCCTTTCCTTGGGGAATTCTATTTCCAGCATCCACTTAAGTCGCTTCTAGTGATCAAATACACAGACATAGAATCTGTTGGCGCTAGAGCATAGCGGTTAAGCAATGCCAAACCTATGCAGGGAAAA (double strand) [PBmtrC1]” the binding was “binds more weakly”.
